Reference: a protein production outcome set (Wang et al. 2014)

Assay: label from the status in PepcDB records

Sequence | protein production
MDRNLVQKGDAPPSKRSDPGTEFCVDIVVKGRKTEVPERFRKHVAEKLKLEKIQKLDGKVISLDVEVSKEPNPRQADRCDRVEITLRSRGPVIRAEAAASDPYAALDLAAEKLGARLRKQHDKRFSRRGARRISAAEVADHVPGAATLNGNGDVVPTEKQDGVPTKKIGSLEVQGDGPLVVREKTHVAAPMSLDQALYEMELVGHDFYLFVDSETKEPSVVYRRHAYDYGVIHLTTDTMVTQAHAPDAGDALGGLEHHHHHH | failed
MFNPNVAVKNIVTQNGADSIISLIARILMAYIFLVAGWGKITAYSATVGYMEAMGVPGALLPLTILVEFGGGLALLFGFQARFAAFGLGIFSLLTAFIFHEGTDQAQAINFMKNFAMAGGLFFLMLHGAGKISLDAAIEK | failed
MAQHTVYFPDAFLTQMREAMPSTLSFDDFLAACQRPLRRSIRVNTLKISVADFLQLTAPYGWTLTPIPWCEEGFWIERDNEDALPLGSTAEHLSGLFYIQEASSMLPVAALFADGNAPQRVMDVAAAPGSKTTQISARMNNEGAILANEFSASRVKVLHANISRCGISNVALTHFDGRVFGAAVPEMFDAILLDAPCSGEGVVRKDPDALKNWSPESNQEIAATQRELIDSAFHALRPGGTLVYSTCTLNQEENEAVCLWLKETYPDAVEFLPLGDLFPGANKALTEEGFLHVFPQIYDCEGFFVARLRKTQAIPALPAPKYKVGNFPFSPVKDREAGQIRQAATGVGLNWDENLRLWQRDKELWLFPVGIEALIGKVRFSRLGIKLAETHNKGYRWQHEAVIALASPDNMNAFELTPQEAEEWYRGRDVYPQAAPVADDVLVTFQHQPIGLAKRIGSRLKNSYPRELVRDGKLFTGNA | not failed
MVCFASLFEEVSMHTCPLCHNQHTRHYFEDKHREYLQCEQCYLVFVNPDQRLDAETEKAHYDLHENNPEDIGYRRFLSRIADPITERISPQSNGIDFGCGPGPTLSLMLEEAGHNMALYDIYYHPDTAVLEKQYDFMTATEVIEHLYHPDVVWKQWLNLVKPGGWIGLMTKMVIDVEAFKSWHYKNDPTHVVFFSRDTFQFLAERDKLELEFIGNDVILLRKTQLEHHHHHH | not failed
MDTMDTLRAFLRVAELGSFTRAAETLGLPKASVSTAVQRLEASLGTQLLHRTTRRVQLTADGTAFYQRSRDLLDDMDELQGMFQRDHSQLRGRLRVDMSAGIARQFVIPALPAFLAQHPQLEIEISGTDRRVDLVREGFDCVLRVGTVEDTSLVGRPLGVLRIINVASAQYLAQRGVPQTLEDLAQHDLVHYVSTLGQRSPGFEYHDGAQYHWLPMRGPVTVNNGDAYLAAARAGLGIIQAPASPLQAHLDSGVLVEVLAQMAPEPMPVTLLYAQRRHLPQRVRLFMDWIAQVMAPHLEPHLP | failed
MPTYPPSLLQSLLQYIPERELAWDCGAGSGQLTHMLASYFDQVVGTDISQTQLSHAEYYDNISYQLQPAENTTFPDHCFDLITVAQAIHWFDFEAFYAEVRRTIKPSGILAVVGYGLIHVDDLEINAKVQHLYHQTLNGFWDAERHYVDELYQTIPFPFDEIEMPAFQIEAQWTLQQLLQYLNTWSAVQHYILEKNLDPVQQLLSKGLEHHHHHH | failed
MWYTVQPGDSLYTISQRFGVTIAQIKSANQLTSDIIYVGQRLYIPIGIQAPVVYTVRPGDTLYLIARRYNTTVDSLMALNNLSSTELRIGQQLTIPLYTEAVVNVGTANIRRGPGTNFGIITRMTNGARLPVIGFSNNWYQVRLYNGREGWISGSIVTRNVYSGRRPITGVLGFYTLEEGPTLPSSFTSFANNTGQLSSTALFMFRISAANPTTIEKFGEFTDQDVRNLVAIAHRNNVKIMPVVHNLLYRPGGTTLAKNVVKTLVSDPRNRNAFALNLVNLIERYGFDGVNIDIEDVFIEDSDNLSLLYTEISEVLRPRGYFFSASVPSRVSDEPFNPFSDPFNYSVIGRAVDEFVVMLYNEFGWPGSPPGPAVTIGWMERVLRYTMSKMPRDKIMAAVSVFGFDFNLTTGRNTYVTYQSAINLARRYNSEIIFNEERQTPMFTYRDAQGNQHEVWFEDARSLRSKIQLAWELGIKGVALWRLGMEDPNIWPMLRNEVVVRKF | failed
NENNTVVAETKTSTASETSEPKQVISSKQQLASLYLQAKQSLFKQRALSATMYGLSQKDIGQVISSDMEFYSPENEKQLRAELLSISNTIAGIKLDDADITTKNNQQVMAGLTRYFAGEPNFNIGYIDTWMGLSPFIVNQINGPLIDIPRVMQNDQPITTEKEALDYIVRLGQFDKLAATIIEKQTADAAQNWLPSKVTLQGAIKYLKGFTSGSAEQHPFVNVFREKIEKVDSLTTEQKQSLITQVIAKVSQVVYPAYQSVEKASEQLLSEARSESGIWAQPKGSVYYQDAIKQLGDSELSPTQIHQIGLDEVARISGVMNEILLAQGYTKGTVGERMVALNEEPRFLYEDSIAGREELLSDINGYITEVTAKMAPVFRTTPSYQVEVKSFPVEVQDGAPGGQYTSPAVDGSKPGIYWINLRDMKANPKFGLKTLTYHEANPGHHWQIALNLDQAELPFLRRIAPYNAYTEGWALYSEQVAYELGMYENDPFGDLGRLQAELFRAVRLVVDTGLHDKRWTREQAISYMSEQTGTAESDVVAEIERYMAWPGQALGYKLGMLKILSLREQAKARLGDKFDLAEFHDVVLLNGAVPMAVLSRNVNHWLDNK | not failed
MPTERPTTTAPVSLRERRRTAAAREILDAAEQHIGEHGPAALSLRAVARGLGMTVQALYHYFPNRDALVTALITKAYGELSDVLQAAADSVRADPATPRPVAVAEAYRGWGVARPEHFQLLYGTPLRYYAAPAEGPTTQAVRRMGAIFQRELFAGFTPAQLAAAEVPALSPSYREHLEQLPMHAQGDLPPAAASLFLSAWGHVHGLVVLEVFGHTAFLGDHQAEVFRTSVRMMLEDIHRRIPAA | not failed
MNQGKIITVSGPLVVASGMQEANIQDICRVGHLGLVGEIIEMRRDQASIQVYEETSGIGPGEPVVTTGCPLSVELGPGLISEMFDGIQRPLDRFQKATDSDFLIRGVAIPSLDRKAKWAFIPKLSVGQEVVAGDILGTVQETAVIEHRIMVPYKVSGTLVAIHAGDFTVTDTVYEIKQEDGSIYQGSLMQTWPVRQSRPVAQKLIPVEPLVTGQRVIDTFFPVTKGGAAAVPGPFGAGKTVVQHQIAKFANVDIVIYVGCGERGNEMTDVLNEFPELIDPNTGQSIMERTVLIANTSNMPVAAREASIYTGITIAEYFRDMGYSVAIMADSTSRWAEALREMSGRLQEMPGDEGYPAYLGSRIAEYYERAGRVRTLGSQEREGTITAIGAVSPPGGDISEPVTQNTLRIVKVFWGLDAPLAQRRHFPAINWLTSYSLYQDDVGSYIDRKQQSNWSNKVTRAMAILQREASLEEIVRLVGLDSLSEQDRLTMAVARQIREDYLQQNAFDSVDTFTSFPKQEAMLTNILTFNEEASKALSLGAYFNEIMEGTAQVRDRIARSKFIPEENLEQIKGLTQKVTKEIHHVLAKGGI | failed
MRGILRMTVLAAAVFGVAGNALAEDWKLAKDEDGVKVYLSSVQGSKYKAYRGVTDIKADVATIEALQEDVKGSCKWIHACAEMKLLKQEGADAWTYSKIDMPWPVTGRDVVIHVTTEKTADGTVIRHLKADPTYIPEEKGQIRVPKLVGEWKLQPKGQGVTEVTYQVETEPGGSIPSWLANSFVVDAPLNTLKGLRSAAEKR | failed
MADGVLAVSQEGFNTLQSYNVGEKYTADLWIQQGGLKSTASVVSFSVDKALLDSMNIADGTSYELLPADCYQLTKSSVDIPANERLLKGELTYDPAKIQELSGYDHLKYVLPLRATSSGMPFVSGRSVLLLGFKVSEPIVTIMNAGVEEINLAEVKELPVQIGVPFTNKWEISCRLESRQSVIDAYNTAHGTYFSMLPSDAYVTPETPILHSGVNQVTATYKLKDDILPGNYMLPVQIAEVTSDATIRADKDVYAAYSIIKEGDKLSKTDWKIVSFTTEEASGEGSNNGHAKHLIDGNIETFWHSRWQGGSDPLPYEIIIDMNHRVKIAQIELLPRGRGSNNPIKVVRFEASEDGTNWESIGQFGFTNQDAALKYYVKSSTARYIKLVIPDGVGNGTVAAIRELDVRGTVVNLEHHHHHH | not failed
MTKVNPYAAGARGLCPHCGEGYLFDGFLKVAPRCEACGFELGKHETGDGAATFVILIAGAICAFGALFSMFAWNWPVWVSLVVWLPAVVAISLGLMRPAKGLMVAAQIAQKASEAGRDHV | failed
MSDEHRFSRLRPLSLGLLAPLAVLLTGCGGPNLIERLSIGNWGFWGTVIIVLDLVALVDLLGDGTRSTTSTVVWALLIVFAPVLGVILYFIFGRE | failed
MKALIFAAGFGERMRPLTEHTPKPLLSVGGTPLIVWHLRKLAALGVDEVVINTSWLAEQFPQVLGDGSAFGLRLTYSYEGATPLETGGGMLHALPLLGDAPFLLVNGDIWTDFDFARLSHAPDGLAQLVLVDQPSYATRADFALDADGNVRADLPASLTYSGIGMYRPALLRDWQSVIGQLPEQPCTAPRFALAPILRAQMTARLINGIHHSGRWTDVGTPQRLAELDAQLLRDGS | failed
MALKLGLTEAVSLGITHISIYCDHFQIFELVMWRSVPDKDSIAMIMYDVQRIRQQLTSSTPLLVTGNQTNKLAYELALETLVSEISISIEEKALTCDKN | failed
MLEATNTPSKTEEPAAPVNPALAAEAKIARIAVTVFPLLVVVAGVLGFLIPDLFKPMGVAVPYLLGVIMFCMGLTLTPPDFASVARRPWAVALGIVAHYVIMPGAGWLIAVLLQLPPELAVGLILVGCAPSGTASNVMAFLAKGDVALSVAVASVSTLIAPIVTPTLTLFLAGSFLHIDAGAMVMDIVKTVLLPVIAGLLARLFLSKLVAKVLPALPWASAVVISLIVAIVVAGSASKIVAAGAIVFLAVVLHNGFGLGLGYLAGKLGRLDDKARRALAFEVGMQNSGLAATLATAHFSPLAALPSAVFSLWHNISGAIVAAWLARRPLKD | failed
MTIKIALLGFGTVAKGIPYLLKENQHKLLSLEGEDIVIDKVLVRDNESRQRFINQGFTYNFVTEINTILQDSQIDIVVELMGGIEPAKTYLSQALGFGKHIVTANKDLIALHGKELMDLADARGLALFYEGAVAGGIPILRTLSHSFASDKMTRLLGILNGTSNFMLTKMFEEGWSYEQALKKAQELGYAESDPTNDVEGIDTAYKATILSQFGFGMPIDFDDVNYKGISSIRSEDVEVAQEMGFAIKLVADLRETPTGISVDVSPTLISQKHPLAAVNHVMNAVFIESIGIGQSLFYGPGAGQNPTATSVLADIIDISRSIRSQIKIKPMNTYHCPCRLSMQSDIFNEYYLAISLRNAEDSDTLGRYFEQENIGLKNVIEKALGDKQQEIYVLTDEVSQEKITQFIEEFPESGVIQLINVFKVIGG | failed
MGHHHHHHSHRNLDSRTFITIGDRNFEVEADDLVTISELGRGAYGVVEKVRHAQSGTIMAVKRIRATVNSQEQKRLLMDLDINMRTVDCFYTVTFYGALFREGDVWICMELMDTSLDKFYRKVLDKNMTIPEDILGEIAVSIVRALEHLHSKLSVIHRDVKPSNVLINKEGHVKMCDFGISGYLVDSVAKTMDAGCKPYMAPERINPELNQKGYNVKSDVWSLGITMIEMAILRFPYESWGTPFQQLKQVVEEPSPQLPADRFSPEFVDFTAQCLRKNPAERMSYLELMEHPFFTLHKTKKTDIAAFVKEILGEDS | failed
MSKARKTAASSGEPDFWRVARDWLHHWLPKVRGSSPKTVEAYRIGLESYVRWLETTEGTQRSHIGFGHFDRARLGRWVEWMRTERGYSDRTIMLRMTTMRVFLDHAGLEHPALTALGNDAAGIRVKPPARKPVDHLGEEHTKALLTAWGTGDAKSRRNRMLLILMYDTAARIGELAALTIADVGMDKPARVTLTGKRGKSRVVPLGERTRTHLAAYLEEFHPGPSMRDGDRPLFHSTRNGAIQPLSVDRIDEILKTAAARARRGTCPSMPERVHCHLIRRTRAMDLYQQGVPLPLIMQLLGHESMSTTSAFYAFATLDMMRKAVDAANPGPDPSKETWLSEQRLRQLHTLK | failed
IRQAARGDAERGLGRRRLMQALDGMEAGCALLDGRGSLQEASHGLCRLLGRGRADLLGMNVADVCAPEDLSRLNAALACGGRMQRLRLRLMDGDGRAVDCELVLTPQEESMDGAAWLLQAED | failed
